Data set [1] addresses T1, RelSt3 (MOBT relaxase) (Streptococcus thermophilus (ICESt3)) (UniProt Q935T7).
T1 sequence: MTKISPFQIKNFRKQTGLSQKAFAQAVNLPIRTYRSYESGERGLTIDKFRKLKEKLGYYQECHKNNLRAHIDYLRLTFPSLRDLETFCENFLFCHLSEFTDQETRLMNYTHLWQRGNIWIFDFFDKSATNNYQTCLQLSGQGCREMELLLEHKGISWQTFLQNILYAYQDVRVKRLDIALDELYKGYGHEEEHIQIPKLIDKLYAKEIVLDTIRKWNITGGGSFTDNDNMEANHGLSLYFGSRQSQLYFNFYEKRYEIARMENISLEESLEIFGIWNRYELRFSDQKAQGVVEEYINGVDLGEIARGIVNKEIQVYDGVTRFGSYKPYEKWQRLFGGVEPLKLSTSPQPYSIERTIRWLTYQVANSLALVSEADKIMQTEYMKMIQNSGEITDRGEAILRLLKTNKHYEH
As to the kind of experiment: EMSA. Particulars: PAGE EMSA: 20 mM Tris-HCl (pH not stated), 500 mM NaCl, 100 ug/ml salmon sperm DNA, 0.11 uM DNA, 15 min 37 C, gel run at 4 C; agarose EMSA: 400 ng DNA in ….

Data set [2] concerns the target T2, RelSt3 (MOBT relaxase) (Streptococcus thermophilus (ICESt3)) (UniProt Q935T7).
T2 sequence: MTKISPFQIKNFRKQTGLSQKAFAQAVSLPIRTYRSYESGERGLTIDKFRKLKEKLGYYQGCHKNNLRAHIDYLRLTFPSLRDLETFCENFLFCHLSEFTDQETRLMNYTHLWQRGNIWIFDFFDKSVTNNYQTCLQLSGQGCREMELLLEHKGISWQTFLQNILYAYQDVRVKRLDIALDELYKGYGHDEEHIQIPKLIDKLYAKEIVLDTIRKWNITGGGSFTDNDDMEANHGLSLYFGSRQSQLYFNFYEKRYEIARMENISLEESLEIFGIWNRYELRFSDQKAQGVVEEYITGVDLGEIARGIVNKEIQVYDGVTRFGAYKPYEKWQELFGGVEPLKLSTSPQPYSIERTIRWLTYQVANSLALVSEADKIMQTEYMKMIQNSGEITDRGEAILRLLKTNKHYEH
As to the kind of experiment: EMSA. Particulars: PAGE EMSA: 20 mM Tris-HCl (pH not stated), 500 mM NaCl, 100 ug/ml salmon sperm DNA, 0.11 uM DNA, 15 min 37 C, gel run at 4 C; agarose EMSA: 400 ng DNA in …. The source holds these as a separate data set. (In EMSA bound probe runs differently from free probe, usually more slowly.)

Data set [3] addresses T3, RelSt3 (MOBT relaxase) (Streptococcus thermophilus (ICESt3), UniProt Q935T7 1-410).
T3 sequence: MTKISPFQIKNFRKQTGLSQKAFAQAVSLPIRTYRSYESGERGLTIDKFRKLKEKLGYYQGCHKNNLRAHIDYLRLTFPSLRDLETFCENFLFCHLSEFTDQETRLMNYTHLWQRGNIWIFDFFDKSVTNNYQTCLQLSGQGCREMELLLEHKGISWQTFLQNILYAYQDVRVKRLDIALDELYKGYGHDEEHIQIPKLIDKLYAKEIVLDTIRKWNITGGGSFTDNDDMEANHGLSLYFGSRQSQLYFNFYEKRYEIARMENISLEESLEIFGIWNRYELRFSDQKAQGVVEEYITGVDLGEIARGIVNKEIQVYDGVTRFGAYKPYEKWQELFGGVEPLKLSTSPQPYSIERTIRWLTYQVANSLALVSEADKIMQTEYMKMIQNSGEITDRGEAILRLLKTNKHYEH
As to the kind of experiment: EMSA; PAGE EMSA: 20 mM Tris-HCl (pH not stated), 500 mM NaCl, 100 ug/ml salmon sperm DNA, 0.11 uM DNA, 15 min 37 C, gel run at 4 C; agarose EMSA: 400 ng DNA in 20 ul, 15 min 37 C. The settings on record: protein: recombinant, tags: N-terminal 6xHis-TEV (pSKB3), label: 5' 6-FAM, blunt.

For data set [4], the target named is T3, RelSt3 (MOBT relaxase). As to the kind of experiment: EMSA; apparent Kd; PAGE EMSA: 20 mM Tris-HCl (pH not stated), 500 mM NaCl, 100 ug/ml salmon sperm DNA, 0.11 uM DNA, 15 min 37 C, gel run at 4 C; agarose EMSA: 400 ng DNA in 20 ul, 15 min 37 C. Particulars: protein: recombinant; tags: N-terminal 6xHis-TEV (pSKB3); label: 5' 6-FAM; blunt; possible cruciform.

A further data set addresses T4, RelSt3 R32A-R35A (Streptococcus thermophilus (ICESt3), UniProt Q935T7 1-410, R32A;R35A).
T4 sequence: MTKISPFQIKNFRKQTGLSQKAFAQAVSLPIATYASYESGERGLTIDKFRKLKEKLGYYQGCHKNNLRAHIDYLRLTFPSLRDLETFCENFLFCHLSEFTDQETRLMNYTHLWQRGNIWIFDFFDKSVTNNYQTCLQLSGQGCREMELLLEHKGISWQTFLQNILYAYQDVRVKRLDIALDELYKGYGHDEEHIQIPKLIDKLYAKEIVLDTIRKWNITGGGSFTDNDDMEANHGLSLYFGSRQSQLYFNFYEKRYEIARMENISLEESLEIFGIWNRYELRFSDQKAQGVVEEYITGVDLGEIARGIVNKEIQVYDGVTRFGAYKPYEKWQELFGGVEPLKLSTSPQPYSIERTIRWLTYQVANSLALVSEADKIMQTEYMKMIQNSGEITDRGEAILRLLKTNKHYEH
In words: EMSA; up to 6.4 uM; PAGE EMSA: 20 mM Tris-HCl (pH not stated), 500 mM NaCl, 100 ug/ml salmon sperm DNA, 0.11 uM DNA, 15 min 37 C, gel run at 4 C; agarose EMSA: 400 ng DNA in 20 ul, 15 min 37 C. Particulars: protein: recombinant; tags: N-terminal 6xHis-TEV (pSKB3); label: 5' 6-FAM; blunt; possible cruciform.

In data set [5] the target is T5, RelSt3(64-410), HTH deleted (Streptococcus thermophilus (ICESt3), UniProt Q935T7 64-410).
T5 sequence: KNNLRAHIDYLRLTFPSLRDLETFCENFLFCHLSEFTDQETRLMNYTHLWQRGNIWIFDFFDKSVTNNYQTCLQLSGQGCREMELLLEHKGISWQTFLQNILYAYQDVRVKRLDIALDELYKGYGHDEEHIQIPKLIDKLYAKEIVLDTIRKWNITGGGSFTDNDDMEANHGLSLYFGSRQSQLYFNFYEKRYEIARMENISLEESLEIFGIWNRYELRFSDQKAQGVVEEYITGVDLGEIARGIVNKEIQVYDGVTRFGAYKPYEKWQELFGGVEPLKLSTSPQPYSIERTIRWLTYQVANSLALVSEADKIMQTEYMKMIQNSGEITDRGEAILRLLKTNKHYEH
In words: EMSA; up to 1.75 uM; PAGE EMSA: 20 mM Tris-HCl (pH not stated), 500 mM NaCl, 100 ug/ml salmon sperm DNA, 0.11 uM DNA, 15 min 37 C, gel run at 4 C; agarose EMSA: 400 ng DNA in 20 ul, 15 min 37 C. The settings on record: protein: recombinant; tags: N-terminal 6xHis-TEV (pSKB3); label: 5' 6-FAM; blunt; possible cruciform.

For data set [6], the target named is T3, RelSt3 (MOBT relaxase). In words: EMSA; data not shown; PAGE EMSA: 20 mM Tris-HCl (pH not stated), 500 mM NaCl, 100 ug/ml salmon sperm DNA, 0.11 uM DNA, 15 min 37 C, gel run at 4 C; agarose EMSA: 400 ng DNA in 20 ul, 15 min 37 C. Particulars: protein: recombinant; tags: N-terminal 6xHis-TEV (pSKB3); label: 5' 6-FAM; blunt.
Data set [7] addresses T3, RelSt3 (MOBT relaxase). As to the kind of experiment: EMSA; up to 6.4 uM; PAGE EMSA: 20 mM Tris-HCl (pH not stated), 500 mM NaCl, 100 ug/ml salmon sperm DNA, 0.11 uM DNA, 15 min 37 C, gel run at 4 C; agarose EMSA: 400 ng DNA in 20 ul, 15 min 37 C. The settings on record: protein: recombinant; tags: N-terminal 6xHis-TEV (pSKB3); label: 5' 6-FAM; blunt.

The record followed here is paper PMC9371924, “Exploration of DNA processing features unravels novel properties of ICE conjugation in Gram-positive bacteria”.

Regarding “AAAAAGAATTCTGTTCATCATGGGCTAGGACAAGGGCAAGGACAAGCCTGACCACAGGTCAGGCGCAGACCGTAGCCCGAAGTTCCTAGGCCATGATGAGACTTCAACCCCCGATTTCTAATAGGGGGGTTACATTTGGCCAAAGTGCCACGTCCACCCCTCCTCATTCCTTGTGGGAGTTGGGATTTCAAGATTTAGAAAGTGTGTCACTTTGGTCCAAAAAGTGTGTCACTTAGTCAAAAGGAGGTGTTCCCATGAATGACTAAAATAAGTCCCTTTCAGATCAAGGGCCCTTTTT (double strand) [oriT1 PCR product]”, in data set [1], the binding entry is “binds”.
As to “GAGACTTCAACCCCCGATTTCTAATAGGGGGGTTACATTTTCAAGATTTAGAAAGTGTGTCACTTTGGTCCAAAAAGTGTGTCACTTAGTCAAAAGGAG / CTCCTTTTGACTAAGTGACACACTTTTTGGACCAAAGTGACACACTTTCTAAATCTTGA [ori50 (ss nic region + ds IR2)]”, the Kd in data set [2] came out at 3.2 µM.

B1: ori41M6 (IR2b mutated) (dsDNA)
DNA 1: TCAAGATTTAGAAAGTGTGTCACTTTGGTCCAAACGATACGCTGACGAGTCAAAAGGAG
DNA 2: CTCCTTTTGACTCGTCAGCGTATCGTTTGGACCAAAGTGACACACTTTCTAAATCTTGA
As for B1, the binding result in the data set with RelSt3 (MOBT relaxase) [3] is reported as “no binding”.

B2: ori41 (ori41WT) dsDNA, full IR2 (dsDNA)
DNA 1: TCAAGATTTAGAAAGTGTGTCACTTTGGTCCAAAAAGTGTGTCACTTAGTCAAAAGGAG
DNA 2: CTCCTTTTGACTAAGTGACACACTTTTTGGACCAAAGTGACACACTTTCTAAATCTTGA
As for B2, the Kd with RelSt3 (MOBT relaxase) [4] was about 1.6 µM. Moreover, the binding result (with RelSt3 R32A-R35A; in data set [5]) was “no binding” each time.

B3: ori47 (IR1-IR2 spacer) (dsDNA)
DNA 1: ACATTTGGCCAAAGTGCCACGTCCACCCCTCCTCATTCCTTGTGGGAGTTGGGATTTCAAGATTTAGA
DNA 2: TCTAAATCTTGAAATCCCAACTCCCACAAGGAATGAGGAGGGGTGGACGTGGCACTTTGGCCAAATGT
Consider B3, for which the binding result in the data set with RelSt3 (MOBT relaxase) [6] was “no binding”.

B4: ori41M5 (IR2a mutated) (dsDNA)
DNA 1: TCAAGATTTAGACGATACGCTGACGTGGTCCAAAAAGTGTGTCACTTAGTCAAAAGGAG
DNA 2: CTCCTTTTGACTAAGTGACACACTTTTTGGACCACGTCAGCGTATCGTCTAAATCTTGA
Turning to B4, the binding result with RelSt3 (MOBT relaxase) [3] is reported as “no binding”.

B5: non-specific dsDNA (dsDNA)
DNA 1: CTTACCGATAAGAACTTACCGCTCCTATGAATCTGGGGAAAGAGGTCTGACCATTGACAAGTTTCGAAAACTCAAAGAAAAGC
DNA 2: GCTTTTCTTTGAGTTTTCGAAACTTGTCAATGGTCAGACCTCTTTCCCCAGATTCATAGGAGCGGTAAGTTCTTATCGGTAAG
Regarding B5, in the data set with RelSt3 (MOBT relaxase) [7], the binding result was “no binding”.

B6: ori46 (IR1, nic site) (dsDNA)
DNA 1: GAGACTTCAACCCCCGATTTCTAATAGGGGGGTTACAT
DNA 2: ATGTAACCCCCCTATTAGAAATCGGGGGTTGAAGTCTC
In the case of B6, the binding result with RelSt3 (MOBT relaxase) [7] is listed as “no binding”.

B7: ori41M11 (IR2 replaced by IR of same length and GC%) (dsDNA)
DNA 1: TCAAGATTTAGACGATACGCTATCGTGGTCCAAACGATACGCTATCGAGTCAAAAGGAG
DNA 2: CTCCTTTTGACTCGATAGCGTATCGTTTGGACCACGATAGCGTATCGTCTAAATCTTGA
For B7, the binding result with RelSt3 (MOBT relaxase) [3] (possible hairpin) is given as “no binding”.
